Patent US5766897A, “Cysteine-pegylated proteins” (Incyte Pharmaceuticals, Inc., priority 1995, dated 1998)

Target: Thrombin (Homo sapiens, UniProt P00734)
Test: thrombin inhibition activity assay (D.4), specific activity
Assay type: biochemical
Details: for ACTIVITY, AFTER PEG MODIFICATION: after cysteine-PEGylation with Maleimido-PEG; for REL TO WT, BEFORE PEG MODIFICATION: activity relative to wild type PN-1; for REL TO ACTIVITY BEFORE PEG, AFTER PEG MODIFICATION: cysteine-PEGylated protein relative to same protein before PEGylation; for REL TO WT, AFTER PEG MODIFICATION: cysteine-PEGylated protein relative to wild type PN-1
Procedure: Refolded or soluble protein was tested for capacity to inhibit thrombin in a standard assay. Briefly, serial 2-fold dilutions of PN-1 variant were added to microtiter plate wells (50 μl/well), followed by 50 μl of a 30 μg/ml heparin solution, followed by 1 NIH unit of thrombin in 50 μl. These were allowed to incubate at 25° C. for 15 minutes. Residual thrombin activity was measured by the addition of 50 μl S-2238 (Kabi Pharmaceuticals) at 0.625 mg/ml. PN-1 variants were tested for their ability to inhibit urokinase using the substrate S-2444, plasmin using the substrate S-2390, tPA using the substrate S2288, Factor Xa using the substrate S-2222 or S-2765, kallikrein using the substrate S-2302, human neutrophil elastase using s-AAPV-pna (Sigma), cathepsin G using s-AAPF-pna (Sigma) in a similar manner, with or without the addition of heparin.
Each of the PN-1 site-directed mutant proteins, as well as wild type PN-1, were modified by cysteine-PEGylation using the protocol described in F.2. The activity of wild type PN-1, each of the PN-1 site-directed mutants, and the cysteine-PEGylated wild type and mutant proteins was determined using the assay described in D.4.

B1: PN-1 produced in insect cells: glycosylated PN-1 produced in insect cells using a baculovirus expression system (protein, UniProt P07093 20-398, looked up)
Glia-derived nexin: SHFNPLSLEELGSNTGIQVFNQIVKSRPHDNIVISPHGIASVLGMLQLGADGRTKKQLAMVMRYGVNGVGKILKKINKAIVSKKNKDIVTVANAVFVKNASEIEVPFVTRNKDVFQCEVRNVNFEDPASACDSINAWVKNETRDMIDNLLSPDLIDGVLTRLVLVNAVYFKGLWKSRFQPENTKKRTFVAADGKSYQVPMLAQLSVFRCGSTSAPNDLWYNFIELPYHGESISMLIALPTESSTPLSAIIPHISTKTIDSWMSIMVPKRVQVILPKFTAVAQTDLKEPLKVLGITDMFDSSKANFAKITTGSENLHVSHILQKAKIEVSEDGTKASAATTAILIARSSPPWFIVDRPFLFFIRHNPTGAVLFMGQINKP
modifications: insect cell glycosylated
notes: glycosylated PN-1 produced in insect cells using a baculovirus expression system
Compared with authentic PN-1
  specific activity vs thrombin and association kinetics, including rate enhancement effect of heparin: indistinguishable from authentic PN-1

B2: N99C (conjugate, UniProt P07093 20-398, looked up, variant N99C)
Glia-derived nexin: SHFNPLSLEELGSNTGIQVFNQIVKSRPHDNIVISPHGIASVLGMLQLGADGRTKKQLAMVMRYGVNGVGKILKKINKAIVSKKNKDIVTVANAVFVKCASEIEVPFVTRNKDVFQCEVRNVNFEDPASACDSINAWVKNETRDMIDNLLSPDLIDGVLTRLVLVNAVYFKGLWKSRFQPENTKKRTFVAADGKSYQVPMLAQLSVFRCGSTSAPNDLWYNFIELPYHGESISMLIALPTESSTPLSAIIPHISTKTIDSWMSIMVPKRVQVILPKFTAVAQTDLKEPLKVLGITDMFDSSKANFAKITTGSENLHVSHILQKAKIEVSEDGTKASAATTAILIARSSPPWFIVDRPFLFFIRHNPTGAVLFMGQINKP
modifications: PEG
  ACTIVITY, AFTER PEG MODIFICATION: 0.50 NIH units of thrombin inhibited per μg PN1 (variant)
  SPECIFIC ACTIVITY, BEFORE PEG MODIFICATION: 0.20 NIH units of thrombin inhibited per μg PN1 (variant)
  REL TO WT, BEFORE PEG MODIFICATION: 0.40
  REL TO ACTIVITY BEFORE PEG, AFTER PEG MODIFICATION: 2.5
  REL TO WT, AFTER PEG MODIFICATION: 1.0

B3: S1C (conjugate, UniProt P07093 20-398, looked up, variant S1C)
Glia-derived nexin: CHFNPLSLEELGSNTGIQVFNQIVKSRPHDNIVISPHGIASVLGMLQLGADGRTKKQLAMVMRYGVNGVGKILKKINKAIVSKKNKDIVTVANAVFVKNASEIEVPFVTRNKDVFQCEVRNVNFEDPASACDSINAWVKNETRDMIDNLLSPDLIDGVLTRLVLVNAVYFKGLWKSRFQPENTKKRTFVAADGKSYQVPMLAQLSVFRCGSTSAPNDLWYNFIELPYHGESISMLIALPTESSTPLSAIIPHISTKTIDSWMSIMVPKRVQVILPKFTAVAQTDLKEPLKVLGITDMFDSSKANFAKITTGSENLHVSHILQKAKIEVSEDGTKASAATTAILIARSSPPWFIVDRPFLFFIRHNPTGAVLFMGQINKP
modifications: PEG
  ACTIVITY, AFTER PEG MODIFICATION: 0.25 NIH units of thrombin inhibited per μg PN1 (variant)
  SPECIFIC ACTIVITY, BEFORE PEG MODIFICATION: 0.10 NIH units of thrombin inhibited per μg PN1 (variant)
  REL TO WT, BEFORE PEG MODIFICATION: 0.20
  REL TO ACTIVITY BEFORE PEG, AFTER PEG MODIFICATION: 2.5
  REL TO WT, AFTER PEG MODIFICATION: 0.50

B4: G52C (conjugate, UniProt P07093 20-398, looked up, variant G52C)
Glia-derived nexin: SHFNPLSLEELGSNTGIQVFNQIVKSRPHDNIVISPHGIASVLGMLQLGADCRTKKQLAMVMRYGVNGVGKILKKINKAIVSKKNKDIVTVANAVFVKNASEIEVPFVTRNKDVFQCEVRNVNFEDPASACDSINAWVKNETRDMIDNLLSPDLIDGVLTRLVLVNAVYFKGLWKSRFQPENTKKRTFVAADGKSYQVPMLAQLSVFRCGSTSAPNDLWYNFIELPYHGESISMLIALPTESSTPLSAIIPHISTKTIDSWMSIMVPKRVQVILPKFTAVAQTDLKEPLKVLGITDMFDSSKANFAKITTGSENLHVSHILQKAKIEVSEDGTKASAATTAILIARSSPPWFIVDRPFLFFIRHNPTGAVLFMGQINKP
modifications: PEG
  ACTIVITY, AFTER PEG MODIFICATION: 0.05 NIH units of thrombin inhibited per μg PN1 (variant)
  SPECIFIC ACTIVITY, BEFORE PEG MODIFICATION: 0.024 NIH units of thrombin inhibited per μg PN1 (variant)
  REL TO WT, BEFORE PEG MODIFICATION: 0.048
  REL TO ACTIVITY BEFORE PEG, AFTER PEG MODIFICATION: 2.1
  REL TO WT, AFTER PEG MODIFICATION: 0.1

B5: R63C (conjugate, UniProt P07093 20-398, looked up, variant R63C)
Glia-derived nexin: SHFNPLSLEELGSNTGIQVFNQIVKSRPHDNIVISPHGIASVLGMLQLGADGRTKKQLAMVMCYGVNGVGKILKKINKAIVSKKNKDIVTVANAVFVKNASEIEVPFVTRNKDVFQCEVRNVNFEDPASACDSINAWVKNETRDMIDNLLSPDLIDGVLTRLVLVNAVYFKGLWKSRFQPENTKKRTFVAADGKSYQVPMLAQLSVFRCGSTSAPNDLWYNFIELPYHGESISMLIALPTESSTPLSAIIPHISTKTIDSWMSIMVPKRVQVILPKFTAVAQTDLKEPLKVLGITDMFDSSKANFAKITTGSENLHVSHILQKAKIEVSEDGTKASAATTAILIARSSPPWFIVDRPFLFFIRHNPTGAVLFMGQINKP
modifications: PEG
  ACTIVITY, AFTER PEG MODIFICATION: 0.125 NIH units of thrombin inhibited per μg PN1 (variant)
  SPECIFIC ACTIVITY, BEFORE PEG MODIFICATION: 0.050 NIH units of thrombin inhibited per μg PN1 (variant)
  REL TO WT, BEFORE PEG MODIFICATION: 0.10
  REL TO ACTIVITY BEFORE PEG, AFTER PEG MODIFICATION: 2.5
  REL TO WT, AFTER PEG MODIFICATION: 0.25

B6: N85C (conjugate, UniProt P07093 20-398, looked up, variant N85C)
Glia-derived nexin: SHFNPLSLEELGSNTGIQVFNQIVKSRPHDNIVISPHGIASVLGMLQLGADGRTKKQLAMVMRYGVNGVGKILKKINKAIVSKKCKDIVTVANAVFVKNASEIEVPFVTRNKDVFQCEVRNVNFEDPASACDSINAWVKNETRDMIDNLLSPDLIDGVLTRLVLVNAVYFKGLWKSRFQPENTKKRTFVAADGKSYQVPMLAQLSVFRCGSTSAPNDLWYNFIELPYHGESISMLIALPTESSTPLSAIIPHISTKTIDSWMSIMVPKRVQVILPKFTAVAQTDLKEPLKVLGITDMFDSSKANFAKITTGSENLHVSHILQKAKIEVSEDGTKASAATTAILIARSSPPWFIVDRPFLFFIRHNPTGAVLFMGQINKP
modifications: PEG
  ACTIVITY, AFTER PEG MODIFICATION: 0.040 NIH units of thrombin inhibited per μg PN1 (variant)
  SPECIFIC ACTIVITY, BEFORE PEG MODIFICATION: 0.033 NIH units of thrombin inhibited per μg PN1 (variant)
  REL TO WT, BEFORE PEG MODIFICATION: 0.066
  REL TO ACTIVITY BEFORE PEG, AFTER PEG MODIFICATION: 1.2
  REL TO WT, AFTER PEG MODIFICATION: 0.080

B7: E125C (conjugate, UniProt P07093 20-398, looked up, variant E125C)
Glia-derived nexin: SHFNPLSLEELGSNTGIQVFNQIVKSRPHDNIVISPHGIASVLGMLQLGADGRTKKQLAMVMRYGVNGVGKILKKINKAIVSKKNKDIVTVANAVFVKNASEIEVPFVTRNKDVFQCEVRNVNFCDPASACDSINAWVKNETRDMIDNLLSPDLIDGVLTRLVLVNAVYFKGLWKSRFQPENTKKRTFVAADGKSYQVPMLAQLSVFRCGSTSAPNDLWYNFIELPYHGESISMLIALPTESSTPLSAIIPHISTKTIDSWMSIMVPKRVQVILPKFTAVAQTDLKEPLKVLGITDMFDSSKANFAKITTGSENLHVSHILQKAKIEVSEDGTKASAATTAILIARSSPPWFIVDRPFLFFIRHNPTGAVLFMGQINKP
modifications: PEG
  ACTIVITY, AFTER PEG MODIFICATION: 0.15 NIH units of thrombin inhibited per μg PN1 (variant)
  SPECIFIC ACTIVITY, BEFORE PEG MODIFICATION: 0.095 NIH units of thrombin inhibited per μg PN1 (variant)
  REL TO WT, BEFORE PEG MODIFICATION: 0.19
  REL TO ACTIVITY BEFORE PEG, AFTER PEG MODIFICATION: 1.57
  REL TO WT, AFTER PEG MODIFICATION: 0.3

B8: D147C (conjugate, UniProt P07093 20-398, looked up, variant D147C)
Glia-derived nexin: SHFNPLSLEELGSNTGIQVFNQIVKSRPHDNIVISPHGIASVLGMLQLGADGRTKKQLAMVMRYGVNGVGKILKKINKAIVSKKNKDIVTVANAVFVKNASEIEVPFVTRNKDVFQCEVRNVNFEDPASACDSINAWVKNETRDMICNLLSPDLIDGVLTRLVLVNAVYFKGLWKSRFQPENTKKRTFVAADGKSYQVPMLAQLSVFRCGSTSAPNDLWYNFIELPYHGESISMLIALPTESSTPLSAIIPHISTKTIDSWMSIMVPKRVQVILPKFTAVAQTDLKEPLKVLGITDMFDSSKANFAKITTGSENLHVSHILQKAKIEVSEDGTKASAATTAILIARSSPPWFIVDRPFLFFIRHNPTGAVLFMGQINKP
modifications: PEG
  ACTIVITY, AFTER PEG MODIFICATION: 0.125 NIH units of thrombin inhibited per μg PN1 (variant)
  SPECIFIC ACTIVITY, BEFORE PEG MODIFICATION: 0.063 NIH units of thrombin inhibited per μg PN1 (variant)
  REL TO WT, BEFORE PEG MODIFICATION: 0.125
  REL TO ACTIVITY BEFORE PEG, AFTER PEG MODIFICATION: 2
  REL TO WT, AFTER PEG MODIFICATION: 0.25

B9: D192C (conjugate, UniProt P07093 20-398, looked up, variant D192C)
Glia-derived nexin: SHFNPLSLEELGSNTGIQVFNQIVKSRPHDNIVISPHGIASVLGMLQLGADGRTKKQLAMVMRYGVNGVGKILKKINKAIVSKKNKDIVTVANAVFVKNASEIEVPFVTRNKDVFQCEVRNVNFEDPASACDSINAWVKNETRDMIDNLLSPDLIDGVLTRLVLVNAVYFKGLWKSRFQPENTKKRTFVAACGKSYQVPMLAQLSVFRCGSTSAPNDLWYNFIELPYHGESISMLIALPTESSTPLSAIIPHISTKTIDSWMSIMVPKRVQVILPKFTAVAQTDLKEPLKVLGITDMFDSSKANFAKITTGSENLHVSHILQKAKIEVSEDGTKASAATTAILIARSSPPWFIVDRPFLFFIRHNPTGAVLFMGQINKP
modifications: PEG
  ACTIVITY, AFTER PEG MODIFICATION: 0.91 NIH units of thrombin inhibited per μg PN1 (variant)
  SPECIFIC ACTIVITY, BEFORE PEG MODIFICATION: 0.045 NIH units of thrombin inhibited per μg PN1 (variant)
  REL TO WT, BEFORE PEG MODIFICATION: 0.091
  REL TO ACTIVITY BEFORE PEG, AFTER PEG MODIFICATION: 2
  REL TO WT, AFTER PEG MODIFICATION: 0.18
